The text below walks through data of patent US20260258115A1 (MAPP BIOPHARMACEUTICAL, published 2026).

The target in assay [1] is T1, RSV prefusion F (preF), subtype B (respiratory syncytial virus subtype B).
T1 construct: also called Prefusion subtype B
The experiment in a line: BLI, IgG.

The target in assay [2] is T2, RSV postfusion F (postF), subtype A (respiratory syncytial virus subtype A, UniProt P03420 26-513).
T2 construct: also called Postfusion subtype A; F deltaFP
Description: BLI. In general terms: Biolayer interferometry detects binding as a change in optical thickness at a sensor tip.

The target in assay [3] is RSV F on RSV subtype A virus (mKate-RSV A2) (respiratory syncytial virus A2, UniProt P03420 26-574). Description: cell-based or functional assay.
Assay [4] deals with RSV F on RSV subtype B virus (mKate-RSV B 18537) (respiratory syncytial virus B 18537, UniProt P13843 26-574). Description: cell-based or functional assay.

B1: ADI-22774 (antibody, V domains shown)
VH: EVQLLESGGGLVKPGGSLRLSCAASGFTFSSYSMNWVRQAPGKGLEWVSSISSSSSYIYYADSVKGRFTISRDNAKNSLYLQMNSLRAEDTAVYYCAREGASGYNYRYYFDYWGQGTLVTVSS
VL: QSVLTQPPSVSGAPGQRVTISCTGSSSNIGAGYDVHWYQQFPGAAPKLLIYGNNNRPSGVPDRFSGSKSGTSASLAITGLQADDEADYYCQSYDSSLSGYVVFGGGTKLTVL
notes: full-length IgG
Take B1: in assay [1], binding was characterised by a dissociation constant (Kd) of 4.28 nM. In assay [2], the binding result was “no binding”. The “Neut IC50 subtype A” value in assay [3] turned out to be 0.29 µg/mL. Also, the “Neut IC50 subtype B” value in assay [4] stood at 7.53 µg/mL.

B2: ADI-24839 (antibody, V domains shown)
VH: EVQLVESGGGLVKPGGSLRLSCAASGFTFSSYSMNWVRQAPGKGLEWVSSISSSSSYIYYADSVKGRFTISRDNAKNSLYLQMNSLRAEDTAVYYCARVLVATAYGNAFDIWGQGTMVTVSS
VL: QSVLTQPPSVSGAPGQRVTISCTGSSSNIGAGYDVHWYQQLPGTAPKLLIYGNSNRPSGVPDRFSGSKSGTSASLAITGLQAEDEADYYCQSYDSSLTVVFGGGTKLTVL
notes: full-length IgG
In the case of B2, the affinity in assay [1], expressed as Kd, was 9.63 nM. The binding result in assay [2] is “no binding”. The “Neut IC50 subtype A” value in assay [3] was determined as 0.44 µg/mL. Also, in assay [4], the “Neut IC50 subtype B” value came out at 4.1 µg/mL.

B3: ADI-24842 (antibody, V domains shown)
VH: QVQLVQSGGGLVKPGGSLRLSCAASGFTFSSYSMNWVRQAPGKGLEWVSSISSSSSYIYYADSVKGRFTISRDNAKNSLYLQMNSLRAEDTAVYYCARVPPHDYGGYYFDYWGQGTLVTVSS
VL: QSVVTQPPSVSGAPGQRVTISCTGSSSNIGAGYDVHWYQQLPGTAPKLLIYRNSNRPSGVPDRFSGSKSGTSASLAIIGLQAEDEADYYCQSYDSSLSVVFGGGTKLTVL
notes: full-length IgG
With B3, in assay [1], binding was characterised by a dissociation constant (Kd) of 2.76 nM. In addition, the binding result in assay [2] is given as “no binding”. Also, in assay [3], the “Neut IC50 subtype A” value is 0.03 µg/mL. The “Neut IC50 subtype B” value in assay [4] was 0.03 µg/mL.

B4: ADI-14337 (antibody, V domains shown)
VH: EVQLVESGGGLVKPGGSLRLSCAASGFTFSSYSMNWVRQAPGKGLEWVSSISSSSSYIYYADSVKGRFTISRDNAKNSLYLQMNSLRAEDTAVYYCAREYYDSSGYTNWFDPWGQGTLVTVSS
VL: QPVLTQPPSVSGAPGQRVTISCTGSSSNIGAGYDVHWYQQLPGTAPKLLIYGNSNRPSGVPDRFSGSKSGTSASLAITGLQAEDEADYYCQSYDSSLAWVFGGGTQLTVL
notes: full-length IgG; also called Ab 5
Turning to B4, the Kd (in general, the concentration at which binding is half-saturated) in assay [1] stood at 2.11 nM. Moreover, the binding result in assay [2] is “no binding”. Further, the “Neut IC50 subtype A” value in assay [3] amounted to 0.1 µg/mL. Besides, the “Neut IC50 subtype B” value in assay [4] amounted to 0.07 µg/mL.

B5: ADI-24857 (antibody, V domains shown)
VH: EVQLLESGGGLVKPGGSLRLSCAASGFTFSSYSMNWVRQAPGKGLEWVSSISSSSSYIYYADSVKGRFTISRDNAKNSLYLQMNSLRAEDTAVYYCAREGYYYGSGSYLDYWGQGTLVTVSS
VL: QSVVTQPPSVSGAPGQRVTISCTGSSSNIGAGYDVHWYQQLPGTAPKLLIYGNSNRPSGVPDRFSGSKSGTSASLAITGLQAEDEADYYCQSYDSSLSVVFGGGTKLTVL
notes: full-length IgG
In assay [1], B5 registered a Kd of 3.71 nM. The binding result in assay [2] is “no binding”. Further, in assay [3], the “Neut IC50 subtype A” value worked out at 0.18 µg/mL. The “Neut IC50 subtype B” value in assay [4] was found to be 1.4 µg/mL.

B6: ADI-14344 (antibody, V domains shown)
VH: QVQLVQSGGGLVQPGGSLRLSCAASGFTFRTYALSWVRQAPGKGLEWVSSILGSGGSTYYADSVKGRFTISRDNSKNTLYLQLNSLRAEDTAVYFCAKLAVAGLLHHYYGLDVWGQGTTVTVSS
VL: SYELTQPPSVSVSPGQTASITCSGDKLENKYACWYQQKPGQSPVLLIYQDTKRPSGIPERFSGSNSGTTATLTISGTQALDEADYYCQAWDSSTASVLFGGGTQLTVL
notes: full-length IgG; also called Ab 12
In assay [1], B6 showed a Kd of 0.586 nM. In addition, the binding result in assay [2] is “no binding”. In addition, the “Neut IC50 subtype A” value in assay [3] is 8.68 µg/mL. In addition, the “Neut IC50 subtype B” value in assay [4] was 1.2 µg/mL.

B7: ADI-24849 (antibody, V domains shown)
VH: QVQLVQSGGVVVQPGGSLRLSCAASGFTFDDYTMHWVRQAPGKGLEWVSLIGWDGGSTYYADSVKGRFTISRDNSKYSLYLQMNSLRTEDTALYYCAKDLGSSSGYFLGRDYYGMDVWGQGTTVTVSS
VL: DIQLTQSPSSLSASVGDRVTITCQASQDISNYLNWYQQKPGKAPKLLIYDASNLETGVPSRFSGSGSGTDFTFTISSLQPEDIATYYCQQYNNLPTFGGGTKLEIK
notes: full-length IgG; also called Ab 410
As to B7, the Kd in assay [1] is 1.17 nM. Besides, in assay [2], the binding result is reported as “no binding”. Further, the “Neut IC50 subtype A” value in assay [3] was 0.01 µg/mL. In addition, the “Neut IC50 subtype B” value in assay [4] was 0.03 µg/mL.

B8: ADI-24850 (antibody, V domains shown)
VH: QVQLVQSGGGLVKPGGSLRLSCAASGFTFSSYSMNWVRQAPGKGLEWVSSISSSSSYIYYADSVKGRFTISRDNAKNSLYLQMNSLRAEDTAVYYCAREDYGDYYYYYMDVWGKGTTVTVSS
VL: QPVLTQPPSVSGAPGQRVTISCTGSSSNIGAGYDVHWYQQLPGTAPKLLIYGNSNRPSGVPDRFSGSKSGTSASLAITGLQAEDEADYYCQSYDSSLSGYVFGTGTKVTVL
notes: full-length IgG
In assay [1], B8 returned a Kd of 5.56 nM. Moreover, the binding result in assay [2] is listed as “no binding”. Also, the “Neut IC50 subtype A” value in assay [3] was 0.94 µg/mL. In addition, the “Neut IC50 subtype B” value in assay [4] is 4.17 µg/mL.

B9: ADI-24860 (antibody, V domains shown)
VH: EVQLLESGGGLVKPGGSLRLSCAASGLTFSDYYMSWIRQAPGKGLEWVSYISGGSSYSNYADSVKGRFTISRDNAKNSLYLQMNSLRAEDTAVYYCARGYCSGSSCYEAFDIWGQGTTVTVSS
VL: SYVLTQPPSVSGAPGQRVTISCTGSSSNIGAGFDVHWYQQLPGTAPKLLIYGNSDRPSGVPDRFSGSKSGTSASLAITGLQAEDEADYYCQSYDSSLSGYVFGTGTKVTVL
notes: full-length IgG; also called Ab 420
The molecule B9 had a Kd in assay [1] of 1.56 nM. Further, the binding result in assay [2] is given as “no binding”. Further, the “Neut IC50 subtype A” value in assay [3] is 0.06 µg/mL. Also, the “Neut IC50 subtype B” value in assay [4] came to 0.09 µg/mL.

B10: ADI-14333 (antibody, V domains shown)
VH: EVQLVETGGGLVKPGGSLRLSCADSGFPFSSYSMHWVRQAPGKGLEWVASISSSSSFINYADSVKGRFTISRDNAKNSLYLQMNSLRAEDTAVYFCAREAACGGDCYGYYFDYWGQGTLVTVSS
VL: QSVVTQPPSASGAPGQRVTISCTGSSSNIGAGYDVHWYQQLPGTAPKVLISGNSNRPSGVPARFSGSKSGTSASLAITGLQAEDEADYYCQSYDSSLSGSVFGGGTQLTVL
notes: full-length IgG; also called Ab 1
In turn, B10 yielded a Kd in assay [1] of 0.904 nM. In addition, the binding result in assay [2] is given as “no binding”. The “Neut IC50 subtype A” value in assay [3] was found to be 0.07 µg/mL. In addition, the “Neut IC50 subtype B” value in assay [4] was 0.09 µg/mL.

B11: ADI-25524 (antibody, V domains shown)
VH: EVQLLESGGGLVKPGGSLRLSCAASGFTFSSYSMNWVRQAPGKGLEWVSSISSSSSYIYYADSVKGRFTISRDNAKNSLYLQMNSLRAEDTAVYYCAREWSPIVVVTNAFDIWGQGTMVTVSS
VL: QSVLTQPPSVSGAPGQRVTISCTGSSSNIGAGYDVHWYQQLPGTAPKLLIYGNSNRPSGVPDRFSGSKSGTSASLAITGLQAEDEADYYCQSYDSSLSGWVFGGGTKVTVL
notes: full-length IgG
For B11, the Kd in assay [1] was 23.4 nM. The binding result in assay [2] is listed as “no binding”. In assay [3], the “Neut IC50 subtype A” value was 1.77 µg/mL. Further, in assay [4], the “Neut IC50 subtype B” value is 2.09 µg/mL.

B12: ADI-14340 (antibody, V domains shown)
VH: EVQLVESGGGLVKPGGSLRLSCAASGFTLSSYTMNWVRQAPGRGLEWVSSIYSTSSYIYYADSVKGRFTISRDNAKNSLYLQMNSLRAEDTAVYYCARDSQAVTGTDLYFDSWGQGTLVTVSS
VL: QPGLTQPPSVSVAPGKTARITCGGNNIGRKNVHWYQQKPGQAPILVIYYDSDRPSGIPERFSGSNSGNTATLTISRVEDGDEADYYCQVWDSSNDHVIFGGGTQLTVL
notes: full-length IgG; also called Ab 8
As for B12, the affinity in assay [1], expressed as Kd, was 98 nM. Further, the binding result in assay [2] is listed as “no binding”. The “Neut IC50 subtype A” value in assay [3] is 6.63 µg/mL. Moreover, the “Neut IC50 subtype B” value in assay [4] was determined as 1.94 µg/mL.

B13: ADI-14335 (antibody, V domains shown)
VH: EVQLVESGGGLVQPGRSLRLSCTASGFTFGDYAMSWVRQAPGKGLEWVGFIRSNAFGGTSEYAASVKGRFTISRDDSKSIAYLQMNSLKTEDTAVYYCTRDGIHDYGDSYYYYGMDVWGQGTTVTVSS
VL: DIQLTQSPSSLSASVGDRVTITCRASQTVTTYLNWYQQKPGKAPKLLIYGASSLQSGVPSRFSGSGSGTDFTLTINSLQPEDFATYYCQQTYSTVTFGPGTKVEIK
notes: full-length IgG; also called Ab 3
As to B13, binding in assay [1] was put at a Kd of 0.889 nM. The binding result in assay [2] was “no binding”. Moreover, in assay [3], the “Neut IC50 subtype A” value is 0.32 µg/mL. Further, the “Neut IC50 subtype B” value in assay [4] was 0.1 µg/mL.

B14: ADI-19475 (antibody, V domains shown)
VH: EVQLLESGAEVKKPGASVKVTCKASGYTFTHFGINWVRQAPGQGLEWLGWISAYNGNTNYVQKIQGRVTMTTDTSTNTAYMELRSLRSDDTAVYYCARGPPVEAAGTFDYWGQGTLVTVSS
VL: DIVLTQSPLSLPVTLGQPASISCRSSQSLVYSDGNTYLTWFQQRPGQSPRRLIYKVSNRDSGVPDRFSGSGSGTDFTLQISRVEAEDVGVYYCMQGTHWPFTFGPGTKVEIK
notes: full-length IgG
The molecule B14 came in with a Kd in assay [1] of 4.25 nM. In addition, in assay [2], the binding result was “no binding”. The “Neut IC50 subtype A” value in assay [3] was 0.05 µg/mL. Also, the “Neut IC50 subtype B” value in assay [4] amounted to 0.04 µg/mL.

B15: ADI-19501 (antibody, V domains shown)
VH: QVQLVQSGAEVKKPGASVKVSCKASGYAFTNYGVSWVRQAPGQGLEWMGWISVYNGNTNYAQKLQGRVTMTTDTSTSTAYMELRSLRSDDTALYYCARDPPSEGAAGLFDYWGQGTLVTISS
VL: DIVMTQSPLSLPVTLGQPASFSCRSSQSLVYSDGNTYLSWFQQRPGQSPRRLIYKVSNRDSGVPDRFSGSGSGTDFTLKISRVEAEDVGVYYCMQGTHWPCTFGQGTKVEIK
notes: full-length IgG
In turn, B15 displayed an equilibrium dissociation constant (Kd) in assay [1] of 1.59 nM. The binding result in assay [2] was “no binding”. For the same molecule, the “Neut IC50 subtype A” value in assay [3] was 0.02 µg/mL. Further, the “Neut IC50 subtype B” value in assay [4] turned out to be 0.02 µg/mL.

B16: ADI-22757 (antibody, V domains shown)
VH: EVQLLESGAEVKKPGASVKVSCKASGYTFSNYGISWVRQAPGQGLEWMGWISVYNGNTEYAQKFQGRLTMTTDTSTSTAYMELRSLRSDDTAVYYCARDPPAVAASFMDVWGQGTTVTVSS
VL: EIVLTQSPLSLPVTLGQPASISCRSSQSLVHSEGNTYLSWFQQRPGQSPRRLIYKVSNRDSGVPDRFSGSGSGTDFTLKISRVEAEDVGLYFCMQGTHWPPTFGGGTKVEIK
notes: full-length IgG
For the molecule B16, the Kd in assay [1] was 0.538 nM. For the same molecule, the binding result in assay [2] is reported as “no binding”. In assay [3], the “Neut IC50 subtype A” value stood at 0.06 µg/mL. The “Neut IC50 subtype B” value in assay [4] is 0.07 µg/mL.
